This is an account of results in publication PMC2173521.

In experiment [1] the target is N-1 peptide (derived from HRA of the SV5 F protein) (SV5 (W3A strain)).
Experiment [2] has the same target. Kind of experiment: AUC.

In experiment [1], “C-1 peptide (derived from HRB of the SV5 F protein), wild type” displayed an IC50 inhibition of cell–cell fusion by SV5 F (T7 luciferase reporter gene assay) of 38 nM. As to C-1 peptide L447W, in experiment [2], the Mobs/Mcalc (mol wt found over that calculated for one N-1/C-1 heterodimer) was 3.1. In experiment [1], the IC50 inhibition of cell–cell fusion by SV5 F (T7 luciferase reporter gene assay) turned out to be 106 nM. As for C-1 peptide L447V, the Mobs/Mcalc (mol wt found over that calculated for one N-1/C-1 heterodimer) in experiment [2] was 2.8. For the same substance, the IC50 inhibition of cell–cell fusion by SV5 F (T7 luciferase reporter gene assay) in experiment [1] was 83 nM. For C-1 peptide L447A, in experiment [2], the Mobs/Mcalc (mol wt found over that calculated for one N-1/C-1 heterodimer) is 2.8. Besides, the IC50 inhibition of cell–cell fusion by SV5 F (T7 luciferase reporter gene assay) in experiment [1] was 92 nM.

As for C-1 peptide L447I, the Mobs/Mcalc (mol wt found over that calculated for one N-1/C-1 heterodimer) in experiment [2] is 2.8. Further, the IC50 inhibition of cell–cell fusion by SV5 F (T7 luciferase reporter gene assay) in experiment [1] was 50 nM. On the same counts, the results for C-1 peptide L447G are 2.7 and 150 nM.

Take C-1 peptide I449A: the Mobs/Mcalc (mol wt found over that calculated for one N-1/C-1 heterodimer) in experiment [2] was 2.8. Moreover, the IC50 inhibition of cell–cell fusion by SV5 F (T7 luciferase reporter gene assay) in experiment [1] is 115 nM. The matching figures for C-1 peptide I449F: 2.9 and 151 nM. On the same counts, the results for C-1 peptide I449G are 2.9 and 271 nM.

As for C-1 peptide L447F, in experiment [2], the Mobs/Mcalc (mol wt found over that calculated for one N-1/C-1 heterodimer) was 2.9. The IC50 inhibition of cell–cell fusion by SV5 F (T7 luciferase reporter gene assay) in experiment [1] turned out to be 100 nM.

On to C-1 peptide I449L, for which the Mobs/Mcalc (mol wt found over that calculated for one N-1/C-1 heterodimer) in experiment [2] was 2.8. The IC50 inhibition of cell–cell fusion by SV5 F (T7 luciferase reporter gene assay) in experiment [1] worked out at 54 nM.

In experiment [1], C-1 peptide I449W yielded an IC50 inhibition of cell–cell fusion by SV5 F (T7 luciferase reporter gene assay) of 146 nM.

With C-1 peptide I449V, in experiment [2], the Mobs/Mcalc (mol wt found over that calculated for one N-1/C-1 heterodimer) was 3. In experiment [1], this substance had an IC50 inhibition of cell–cell fusion by SV5 F (T7 luciferase reporter gene assay) of 58 nM.
